Data: the supplement of paper PMC10567573

B1: SPATS1 (parent)
chain: GRKKYDIDPRNGIPKLTPGDNPYM

Variants of: B1
Experiment: protein stability index of a GFP-peptide fusion (GPS, HEK-293T) (PSI 1-6); higher = more stable
Conditions: c terminus: a fixed tail appended
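Note: lentivirally expressed fusions sorted by FACS into six bins by GFP to DsRed ratio, PSI derived from sequencing read proportions per bin multiplied by bin number.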

In order of falling protein stability index:
1. GRKKYDIDPRNGIPKLTPGDNPDM [Y23D]  4.84
2. GRKKYDIDPRNGIPKLTPEDNPYM [G19E]  4.69
3. GRKKYDIDPRNGIPKLTPGDNPEM [Y23E]  4.61
4. GRKKYDIDPRNGIPKLTPGDNPQM [Y23Q]  4.56
5. GRKKYDIDPRNGIPKLTPGDNPLM [Y23L]  4.48
6. GRKKYDIDPRNGIPKLTPGDNPNM [Y23N]  4.43
7. GRKKYDIDPRNGIPKLTPGDNPKM [Y23K]  4.41
8. GRKKYDIDPRNGIPKLTPGDNPPM [Y23P]  4.41
9. GRKKYDIDPRNGIPKLTPGDNPAM [Y23A]  4.3
10. GRKKYDIDPRNGIPKLTPGDNRYM [P22R]  4.22
11. GRKKYDIDPRNGIEKLTPGDNPYM [P14E]  4.16
12. GRKKYDIDPRNGIPKLTPGDNPGM [Y23G]  4.04
13. GRKKYDIDPRNGIPKLTPGDNTYM [P22T]  4.01
14. GRKKYDIDPRNGIPKLTPGDNAYM [P22A]  4.01
15. GRKKYDIDPRNGIPKLTPGDNQYM [P22Q]  3.98
16. GRKKYDIDPRNGIPKLTPGDNPHM [Y23H]  3.93
17. GRKKYDIDPRNGIPKLTPGDNDYM [P22D]  3.91
18. GRKKYDIDPRNGIPKLTPGDNKYM [P22K]  3.89
19. GRKKYDIDPRNGIPKLTPGDNEYM [P22E]  3.85
20. GRKKYDIDPRNGIPKLTPDDNPYM [G19D]  3.83
21. GRKKYDIDPRNGIPKLTPGDNPMM [Y23M]  3.82
22. GRKKYDIDPRNGIPKLTPGSNPYM [D20S]  3.79
23. GRKKYDIDPRNGIPKLTPNDNPYM [G19N]  3.76
24. GRKKYDIDPRNGIPKLTPGDNHYM [P22H]  3.74
25. GRKKYDIDPRNGIPKLTPGRNPYM [D20R]  3.74
26. GRKKYDIDPRNGIPKLTPGKNPYM [D20K]  3.74
27. GRKKYDIDPRNGIPKLTPPDNPYM [G19P]  3.73
28. GRKKYDIDPRNGIPKLTPGDNPIM [Y23I]  3.72
29. GRKKYDIDPRNGIDKLTPGDNPYM [P14D]  3.66
30. GRKKYDIDPRNGIPKLTPGENPYM [D20E]  3.65
31. GRKKYDIDPRNGIPKLTPGDNNYM [P22N]  3.64
32. GRKKYDIDPRNGIPKLTPGDNIYM [P22I]  3.64
33. GRKKYDIDPRNGIPKLTPTDNPYM [G19T]  3.59
34. GRKKYDIDPRNGIPKLTPSDNPYM [G19S]  3.59
35. GRKKYDIDPRNGIPKLTPGANPYM [D20A]  3.58
36. GRKKYDIDPRNGIPKLKPGDNPYM [T17K]  3.57
37. GRKKYDIDPRNGINKLTPGDNPYM [P14N]  3.55
38. GRKKYDIDPRNGIPKLTPGDNSYM [P22S]  3.54
39. GRKKYDIDPRNGIPKLTPGDNGYM [P22G]  3.53
40. GRKKYDIDPRNGIAKLTPGDNPYM [P14A]  3.52
41. GRKKYDIDPRNGIHKLTPGDNPYM [P14H]  3.51
42. GRKKYDIDPRNGIPKLNPGDNPYM [T17N]  3.48
43. GRKKYDIDPRNGIPKLTPGCNPYM [D20C]  3.47
44. GRKKYDIDPRNGIPKLTPGDNYYM [P22Y]  3.44
45. GRKKYDIDPRNGIPKLTPLDNPYM [G19L]  3.44
46. GRKKYDIDPRNGIKKLTPGDNPYM [P14K]  3.44
47. GRKKYDIDPRNGIPKLTPGDNVYM [P22V]  3.42
48. GRKKYDIDPRNGIQKLTPGDNPYM [P14Q]  3.42
49. GRKKYDIDPRNGIGKLTPGDNPYM [P14G]  3.38
50. GRKKYDIDPRNGIPKLTPGDNMYM [P22M]  3.37
51. GRKKYDIDPRNGIPKLTPGDNPFM [Y23F]  3.37
52. GRKKYDIDPRNGIPKLTPGVNPYM [D20V]  3.37
53. GRKKYDIDPRNGIVKLTPGDNPYM [P14V]  3.36
54. GRKKYDIDPRNGIPKLTPGQNPYM [D20Q]  3.36
55. GRKKYDIDPRNGIPKLTPQDNPYM [G19Q]  3.35
56. GRKKYDIDPRNGIPKLTPRDNPYM [G19R]  3.35
57. GRKKYDIDPRNGIPKLTPGDNCYM [P22C]  3.34
58. GRKKYDIDPRNGIPKLTPHDNPYM [G19H]  3.34
59. GRKKYDIDPRNGIPKLHPGDNPYM [T17H]  3.34
60. GRKKYDIDPRNGIPKLTPADNPYM [G19A]  3.32
61. GRKKYDIDPRNGIPKLTPGDNLYM [P22L]  3.31
62. GRKKYDIDPRNGIPKLTPKDNPYM [G19K]  3.31
63. GRKKYDIDPRNGIPKLLPGDNPYM [T17L]  3.31
64. GRKKYDIDPRNGISKLTPGDNPYM [P14S]  3.3
65. GRKKYDIDPRNGIPKLTPGGNPYM [D20G]  3.3
66. GRKKYDIDPRNGIPKLTPIDNPYM [G19I]  3.28
67. GRKKYDIDPRNGITKLTPGDNPYM [P14T]  3.27
68. GRKKYDIDPRNGIPKLTPGDNPCM [Y23C]  3.26
69. GRKKYDIDPRNGIPKLTPCDNPYM [G19C]  3.21
70. GRKKYDIDPRNGIPKLTPGPNPYM [D20P]  3.2
71. GRKKYDIDPRNGIPKLTPGNNPYM [D20N]  3.12
72. GRKKYDIDPRNGIPKLTPGTNPYM [D20T]  3.12
73. GRKKYDIDPRNGIPKLTPGHNPYM [D20H]  3.06
74. GRKKYDIDPRNGIMKLTPGDNPYM [P14M]  3.05
75. GRKKYDIDPRNGIYKLTPGDNPYM [P14Y]  3.03
76. GRKKYDIDPRNGIPKLTPGDNFYM [P22F]  3.02
77. GRKKYDIDPRNGIRKLTPGDNPYM [P14R]  2.99
78. GRKKYDIDPRNGIIKLTPGDNPYM [P14I]  2.96
79. GRKKYDIDPRNGICKLTPGDNPYM [P14C]  2.95
80. GRKKYDIDPRNGILKLTPGDNPYM [P14L]  2.94
81. GRKKYDIDPRNGIWKLTPGDNPYM [P14W]  2.9
82. GRKKYDIDPRNGIPKLTPVDNPYM [G19V]  2.88
83. GRKKYDIDPRNGIPKLTPMDNPYM [G19M]  2.81
84. GRKKYDIDPRNGIPKLTPYDNPYM [G19Y]  2.79
85. GRKKYDIDPRNGIPKLTPGLNPYM [D20L]  2.71
86. GRKKYDIDPRNGIPKLTPFDNPYM [G19F]  2.63
87. GRKKYDIDPRNGIPKLTPGDNWYM [P22W]  2.62
88. GRKKYDIDPRNGIPKLTPGYNPYM [D20Y]  2.49
89. GRKKYDIDPRNGIPKLTPGMNPYM [D20M]  2.46
90. GRKKYDIDPRNGIPKLTPGWNPYM [D20W]  2.41
91. GRKKYDIDPRNGIFKLTPGDNPYM [P14F]  2.4
92. GRKKYDIDPRNGIPKLTPGFNPYM [D20F]  2.33
93. GRKKYDIDPRNGIPKLTPWDNPYM [G19W]  2.3
94. GRKKYDIDPRNGIPKLTPGINPYM [D20I]  2.18
